Laboratory results from patent publication US20260167699A1 (Chugai, published 2026).

Target: T1, FcγRIIIa (human, UniProt P08637 17-208)
T1 construct: extracellular domain; also called 3a; FcγRIIIa extracellular domain
Assay: SPR (Biacore);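 further: antibody variants captured on an SPR sensor chip, with FcγRIIIa passed over as analyte in HBS-EP+ buffer at 25 °C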

T1 sequence (P08637 other isoform, or with tags, fused parts or gaps): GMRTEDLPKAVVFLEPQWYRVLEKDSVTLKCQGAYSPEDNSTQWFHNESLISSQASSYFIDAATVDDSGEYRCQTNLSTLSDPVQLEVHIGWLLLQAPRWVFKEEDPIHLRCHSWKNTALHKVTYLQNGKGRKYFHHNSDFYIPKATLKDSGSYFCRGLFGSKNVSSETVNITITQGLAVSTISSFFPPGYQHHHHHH

Binder	He/Con 3a
GpH7-A5/GpH7-B3 variant S337_19Q/GpL16-k0 (antibody, human IgG1, kappa, copies: 1 + 1 + 2) heavy 1: not shown heavy 2: not shown light: DIVMTQSPLSLPVTPGEPASISCQASESLVHSNRNTYLHWYLQKPGQSPQLLIYKVSNRFSGVPDRFSGSGSGTDFTLKISRVEAEDVGVYYCSQNTHVPPTFGQGTKVEIERTVAAPSVFIFPPSDEQLKSGTASVVCLLNNFYPREAKVQWKVDNALQSGNSQESVTEQDSKDSTYSLSSTLTLSKADYEKHKVYACEVTHQGLSSPVTKSFNRGEC	91.2 % of GpH7-A5/GpH7-B3/GpL16-k0
GpH7-A5/GpH7-B3 variant S337_16H/GpL16-k0 (antibody, human IgG1, kappa, copies: 1 + 1 + 2) heavy 1: not shown heavy 2: not shown light: DIVMTQSPLSLPVTPGEPASISCQASESLVHSNRNTYLHWYLQKPGQSPQLLIYKVSNRFSGVPDRFSGSGSGTDFTLKISRVEAEDVGVYYCSQNTHVPPTFGQGTKVEIERTVAAPSVFIFPPSDEQLKSGTASVVCLLNNFYPREAKVQWKVDNALQSGNSQESVTEQDSKDSTYSLSSTLTLSKADYEKHKVYACEVTHQGLSSPVTKSFNRGEC	100 % of GpH7-A5/GpH7-B3/GpL16-k0
GpH7-A5/GpH7-B3 variant S337_15Y/GpL16-k0 (antibody, human IgG1, kappa, copies: 1 + 1 + 2) heavy 1: not shown heavy 2: not shown light: DIVMTQSPLSLPVTPGEPASISCQASESLVHSNRNTYLHWYLQKPGQSPQLLIYKVSNRFSGVPDRFSGSGSGTDFTLKISRVEAEDVGVYYCSQNTHVPPTFGQGTKVEIERTVAAPSVFIFPPSDEQLKSGTASVVCLLNNFYPREAKVQWKVDNALQSGNSQESVTEQDSKDSTYSLSSTLTLSKADYEKHKVYACEVTHQGLSSPVTKSFNRGEC	94.9 % of GpH7-A5/GpH7-B3/GpL16-k0
GpH7-A5/GpH7-B3 variant T335_02A/GpL16-k0 (antibody, human IgG1, kappa, copies: 1 + 1 + 2) heavy 1: not shown heavy 2: not shown light: DIVMTQSPLSLPVTPGEPASISCQASESLVHSNRNTYLHWYLQKPGQSPQLLIYKVSNRFSGVPDRFSGSGSGTDFTLKISRVEAEDVGVYYCSQNTHVPPTFGQGTKVEIERTVAAPSVFIFPPSDEQLKSGTASVVCLLNNFYPREAKVQWKVDNALQSGNSQESVTEQDSKDSTYSLSSTLTLSKADYEKHKVYACEVTHQGLSSPVTKSFNRGEC	90.9 % of GpH7-A5/GpH7-B3/GpL16-k0
GpH7-A5/GpH7-B3 variant S337_11K/GpL16-k0 (antibody, human IgG1, kappa, copies: 1 + 1 + 2) heavy 1: not shown heavy 2: not shown light: DIVMTQSPLSLPVTPGEPASISCQASESLVHSNRNTYLHWYLQKPGQSPQLLIYKVSNRFSGVPDRFSGSGSGTDFTLKISRVEAEDVGVYYCSQNTHVPPTFGQGTKVEIERTVAAPSVFIFPPSDEQLKSGTASVVCLLNNFYPREAKVQWKVDNALQSGNSQESVTEQDSKDSTYSLSSTLTLSKADYEKHKVYACEVTHQGLSSPVTKSFNRGEC	80.1 % of GpH7-A5/GpH7-B3/GpL16-k0
GpH7-A5/GpH7-B3 variant T335_01G/GpL16-k0 (antibody, human IgG1, kappa, copies: 1 + 1 + 2) heavy 1: not shown heavy 2: not shown light: DIVMTQSPLSLPVTPGEPASISCQASESLVHSNRNTYLHWYLQKPGQSPQLLIYKVSNRFSGVPDRFSGSGSGTDFTLKISRVEAEDVGVYYCSQNTHVPPTFGQGTKVEIERTVAAPSVFIFPPSDEQLKSGTASVVCLLNNFYPREAKVQWKVDNALQSGNSQESVTEQDSKDSTYSLSSTLTLSKADYEKHKVYACEVTHQGLSSPVTKSFNRGEC	95.1 % of GpH7-A5/GpH7-B3/GpL16-k0

The remaining lines, values ahead:

He/Con 3a	Binder
91.7 % of GpH7-A5/GpH7-B3/GpL16-k0	GpH7-A5/GpH7-B3 variant T335_04F/GpL16-k0 (antibody, human IgG1, kappa, copies: 1 + 1 + 2) heavy 1: not shown heavy 2: not shown light: DIVMTQSPLSLPVTPGEPASISCQASESLVHSNRNTYLHWYLQKPGQSPQLLIYKVSNRFSGVPDRFSGSGSGTDFTLKISRVEAEDVGVYYCSQNTHVPPTFGQGTKVEIERTVAAPSVFIFPPSDEQLKSGTASVVCLLNNFYPREAKVQWKVDNALQSGNSQESVTEQDSKDSTYSLSSTLTLSKADYEKHKVYACEVTHQGLSSPVTKSFNRGEC
97.8 % of GpH7-A5/GpH7-B3/GpL16-k0	GpH7-A5/GpH7-B3 variant T335_08L/GpL16-k0 (antibody, human IgG1, kappa, copies: 1 + 1 + 2) heavy 1: not shown heavy 2: not shown light: DIVMTQSPLSLPVTPGEPASISCQASESLVHSNRNTYLHWYLQKPGQSPQLLIYKVSNRFSGVPDRFSGSGSGTDFTLKISRVEAEDVGVYYCSQNTHVPPTFGQGTKVEIERTVAAPSVFIFPPSDEQLKSGTASVVCLLNNFYPREAKVQWKVDNALQSGNSQESVTEQDSKDSTYSLSSTLTLSKADYEKHKVYACEVTHQGLSSPVTKSFNRGEC
99.7 % of GpH7-A5/GpH7-B3/GpL16-k0	GpH7-A5/GpH7-B3 variant T335_15Y/GpL16-k0 (antibody, human IgG1, kappa, copies: 1 + 1 + 2) heavy 1: not shown heavy 2: not shown light: DIVMTQSPLSLPVTPGEPASISCQASESLVHSNRNTYLHWYLQKPGQSPQLLIYKVSNRFSGVPDRFSGSGSGTDFTLKISRVEAEDVGVYYCSQNTHVPPTFGQGTKVEIERTVAAPSVFIFPPSDEQLKSGTASVVCLLNNFYPREAKVQWKVDNALQSGNSQESVTEQDSKDSTYSLSSTLTLSKADYEKHKVYACEVTHQGLSSPVTKSFNRGEC
93.1 % of GpH7-A5/GpH7-B3/GpL16-k0	GpH7-A5/GpH7-B3 variant T335_12R/GpL16-k0 (antibody, human IgG1, kappa, copies: 1 + 1 + 2) heavy 1: not shown heavy 2: not shown light: DIVMTQSPLSLPVTPGEPASISCQASESLVHSNRNTYLHWYLQKPGQSPQLLIYKVSNRFSGVPDRFSGSGSGTDFTLKISRVEAEDVGVYYCSQNTHVPPTFGQGTKVEIERTVAAPSVFIFPPSDEQLKSGTASVVCLLNNFYPREAKVQWKVDNALQSGNSQESVTEQDSKDSTYSLSSTLTLSKADYEKHKVYACEVTHQGLSSPVTKSFNRGEC
91.7 % of GpH7-A5/GpH7-B3/GpL16-k0	GpH7-A5/GpH7-B3 variant T335_11K/GpL16-k0 (antibody, human IgG1, kappa, copies: 1 + 1 + 2) heavy 1: not shown heavy 2: not shown light: DIVMTQSPLSLPVTPGEPASISCQASESLVHSNRNTYLHWYLQKPGQSPQLLIYKVSNRFSGVPDRFSGSGSGTDFTLKISRVEAEDVGVYYCSQNTHVPPTFGQGTKVEIERTVAAPSVFIFPPSDEQLKSGTASVVCLLNNFYPREAKVQWKVDNALQSGNSQESVTEQDSKDSTYSLSSTLTLSKADYEKHKVYACEVTHQGLSSPVTKSFNRGEC
103 % of GpH7-A5/GpH7-B3/GpL16-k0	GpH7-A5/GpH7-B3 variant T335_09D/GpL16-k0 (antibody, human IgG1, kappa, copies: 1 + 1 + 2) heavy 1: not shown heavy 2: not shown light: DIVMTQSPLSLPVTPGEPASISCQASESLVHSNRNTYLHWYLQKPGQSPQLLIYKVSNRFSGVPDRFSGSGSGTDFTLKISRVEAEDVGVYYCSQNTHVPPTFGQGTKVEIERTVAAPSVFIFPPSDEQLKSGTASVVCLLNNFYPREAKVQWKVDNALQSGNSQESVTEQDSKDSTYSLSSTLTLSKADYEKHKVYACEVTHQGLSSPVTKSFNRGEC
